Test results: PMC11869522, “Competitive displacement of lipoprotein lipase from heparan sulfate is orchestrated by a disordered acidic cluster in GPIHBP1” (Journal of Lipid Research, 2025)

B1: GPIHBP1^Cluster2-neutral: GPIHBP1 mutant with all Glu/Asp replaced by Gln/Asn at residues 19–30 (protein)
chain: QTQQEEEEEDEDHGPDDYNQQNQNQVQQQQTNRLPGGGSRVLLRCYTCKSLPRDERCNLTQNCSHGQTCTTLIAHGNTESGLLTTHSTWCTDSCQPITKTVEGTQVTMTCCQSSLCNVPPWQSSRVQDPTG
modifications: Tyr18 sulfation absent; one bi-antennary N-linked glycosylation; left off: uPAR domain III, N-terminal, cleaved
B2: GPIHBP1^Cluster1-neutral: GPIHBP1 mutant with all Glu/Asp replaced by Gln/Asn at residues 1–17 (protein)
chain: QTQQQQQQQNQNHGPNNYDEEDEDEVEEEETNRLPGGGSRVLLRCYTCKSLPRDERCNLTQNCSHGQTCTTLIAHGNTESGLLTTHSTWCTDSCQPITKTVEGTQVTMTCCQSSLCNVPPWQSSRVQDPTG
modifications: Tyr18 sulfation present in less than 40%; one bi-antennary N-linked glycosylation; left off: uPAR domain III, N-terminal, cleaved

Tested on: hLPL bound to immobilized heparan sulfate
Assay: GPIHBP1-mediated extraction of LPL from HSPGs (SPR, immobilized heparin dp4 fragments)
Type: binding, human
Source text: To mimic electrostatic conditions found in the sub-endothelial spaces where surface-bound heparan-sulfate proteoglycans (HSPGs) are abundant, we designed a surrogate sensor surface using a streptavidin-coated CM5 sensor chip to capture high densities of biotinylated synthetic heparin dp4 fragments ([28], [29]). The reference surface was loaded with a neutral and non-sulfated fragment (M09 S00 from Iduron), while the active surface was loaded with a negatively charged fragment (M09 S08a from Iduron) containing N- and O-6-linked sulfations on each of the […] glucosamine residues in the DP4 fragment. Only the highly sulfated oligosaccharide bound LPL, and those interactions were transient with high off-rates. Despite the very transient nature of this binding, we created a stable reservoir of hLPL on the sensor surface by combining the fast kinetics of polyelectrolyte interactions with severe mass transport limitation—the latter phenomenon impedes LPL escape from the surface due to the fast rebinding that is favored by the high densities of immobilized heparin fragments (300 fmol/mm^2). For each experiment, 12.5 nM hLPL was loaded for 100 s at a flow rate of 20 μl/min in 10 mM Hepes (pH 7.4), 150 mM NaCl, 4 mM CaCl2, 10% (vol/vol) glycerol, 0.05% (vol/vol) surfactant P20, 1 mg/ml defatted BSA, […], and 0.05% (wt/vol) NaN3.
To compare the ability of GPIHBP1^1–131 and its charge variants to bind and extract hLPL from this dynamic reservoir, we injected twofold serial dilutions of 1.25–200 nM GPIHBP1^1–131; 1.25–200 nM GPIHBP1^Cluster1-neutral; GPIHBP1^Cluster2-neutral; 1.25–200 nM GPIHBP1^34–131; 0.1–1.6 μM GPIHBP1^1–33 with Tyr^18–SO4; or 1.25–200 nM GPIHBP1^34–131 in the presence of 1 μM sulfated GPIHBP1^1–33 for 250 s at 20 μl/min in 10 mM Hepes (pH 7.4), 150 mM NaCl, 4 mM CaCl2, 10% (vol/vol) glycerol, 0.05% (vol/vol) surfactant P20, 0.2 mg/ml fatty acid-free BSA, and 0.05% (wt/vol) NaN3. At the end of each cycle, two consecutive injections of 10 μl 3 M guanidinium chloride regenerated the chip.
GPIHBP1’s ability to displace LPL from its HSPG-bound state in the sub-endothelial spaces is essential for the trans-endothelial trafficking of LPL to the luminal surface of capillary cells ([29]). The importance of the acidic tail in this process is supported by solid evidence from surrogate in vitro models and in vivo studies in gene-edited mice ([28], [29]). It was therefore important to determine the relative impact of the two charge-clusters in GPIHBP1 on their ability to disrupt LPL•HSPG interactions. To gain this insight, we measured the ability of different GPIHBP1 charge variants to displace hLPL from a SPR sensor chip surface coupled with a high density of immobilized small heparin-like fragments ([28]). […]

| Molecule | competitive displacement of HSPG-bound hLPL (in words) (12.5–200 nM GPIHBP1 proteins, 0.1–1.6 μM sulfated GPIHBP1^1–33, or GPIHBP1^34–131 with 1 μM sulfated GPIHBP1^1–33) | reduction in hLPL levels on the sensor surface after GPIHBP1 injections (ΔLPL, displaced LPL) (serial twofold dilutions 12.5–200 nM, 250 s at 20 μl/min, pH 7.4, mean ± SD, n = 3) |
| --- | --- | --- |
| B1 | neither dislodged any LPL from the surface |  |
| B2 |  | 35% |
